Source: US10149824B2, “Reverse hexagonal mesophases (HII) and uses thereof” (YISSUM RESEARCH DEVELOPMENT COMPANY OF THE HEBREW …, priority 2009, dated 2018)
Blank lines part the entries; values can stand above or below the molecule they belong to.

How the values were obtained:
[1] = type: in vitro ADME
Excerpt: FIG. 24 presents the cumulative transdermal transport of 1 wt % desmopressin, (□) via water solution, (Δ) via HII mesophase.
The applicability and efficiency the HII mesophase as carriers for a transdermal delivery of desmopressin as model peptide drug was studied. Such delivery was especially relevant since the high hydrophilicity of this peptide was the main reason for its uncontrolled fast release when used without a proper carrier.
In the case of bulk hexagonal mesophase, reduced values of steady-state flux were obtained for the drug and its permeability coefficients through the skin, as compared to a water solution. In other words, the peptide molecules penetrated more easily and freely through the skin from water solution, than from hexagonal phase vehicles. […] The drug probably accumulated in microfissures and in a three-dimensional network of thin threads of the skin.

[2] = ATR-FTIR conformational stability of calcitonin in HII mesophase; type: physicochemical
Excerpt: In order to overcome this problem, calcitonin was solubilized into the reverse hexagonal mesophase of the invention, as disclosed herein. Transition from random coil, which is characteristic to the stable and soluble state of the peptide to α helix and mainly β-sheet, which are responsible for the unfavorable aggregation, was detected using ATR-FTIR (FIG. 31). It is well documented that calcitonin is extremely unstable in aqueous solutions, which is reflected by a significant decrease of random coil content and simultaneous increase in the concentration of α helix and β-sheet. At room temperature this trend is observed already after ˜2 days. Using the ATR-FTIR technique, the embedment of calcitonin into the aqueous channels of HII mesophase was explored, indicating a significant improvement in the stability of the peptide (FIGS. 32a-c). […] Therefore, the opposite tendency of calcitonin stabilization in the hexagonal phase was detected, as compared to a water solution. Only after 27 days, the peptide stability decreased, as reflected by the decrease of the random coil content.

[3] = In vivo oral delivery of calcitonin in rats, plasma calcium levels; parameters: species or system Sprague-Dawley rats; details: calcitonin solubilized in hexagonal liquid crystals and/or hexosomes
Experimental: Male Sprague-Dawley rats (Orient Bio Inc, Korea), 7- to 8-weeks old, weighing 250-310 g, were used in the experiments. Animals were housed under a 12-h light-dark cycle, with food and water ad libitum. All animal handling was in accordance with the guidelines of Animal Care and Use Committee of the Korean Institute of Science and Technology.
The technique of cannulation of the jugular vein and arterial has been developed to allow serial blood sampling from an animal. After anesthesia with 0.4 ml/kg of intraperitoneally administered Rumpun/Zoletile [1:2 (v/v)], an incision was made in the skin just above the right clavicle. After preparation of the jugular vein, it was ligated at the distal side. A cannula filled with heparinized normal saline (10 units/ml) was inserted until the tip reached into the right atrium. Arterial cannulation was performed according to the same methods. […]
Calcium concentration at time zero was normalized as the reference level. […] The calcium level in plasma sample was determined using a commercial Calcium Colorimetric Assay Kit (K380-250, Biovision, Mountain View, Calif., USA). In short, plasma calcium was treated with o-cresolphthalein to form a purple colored complex which was measured at 575 nm. […]

[4] = ATR-FTIR secondary structure analysis of LSZ (amide I' band) as a function of pH; type: physicochemical
Experimental: The spectra were recorded with 50 scans, with spectral resolution of 2 cm^−1, at room temperature.

[5] = ATR-FTIR secondary structure of LSZ under urea denaturation; type: physicochemical
Excerpt: The α-helix to β-sheet transition in proteins is highly important for understanding their folding and biological functions. It is recognized that the α→β transition is probably responsible for several conformational diseases, such as Alzheimer disease, where the α-helical forms are normal and the β-sheet forms are amyloidogenic. Urea is an accepted denaturating agent, which may act in several molecular mechanisms. These possible pathways include direct interactions of urea with the protein, indirect effects by decreasing water-water interactions and hydrogen bond strength, and allowing the exposure of nonpolar groups of the protein to the solvent and combinations thereof.
The β-sheet formation was detected by FTIR analysis at 1620 cm^−1 and it was associated with aggregation of the protein, caused by denaturation, in accordance with the literature. In contrast, within the hexagonal mesophase the α-helical conformation stayed intact up to 4M of urea.

[6] = ATR-FTIR secondary structure of LSZ as a function of temperature; type: physicochemical
Experimental: Proteins in general are known for their low stability at high temperatures.
Further temperature increase confirmed the diverse denaturation mechanism. Up to 73° C., the α-helix and the random coil contents decreased in favor of γ-turn formation.

[7] = cubic phase; cited from earlier work
[8] = water solution, after urea denaturation (starting from 2M urea)
[9] = water solution, before the urea-induced decrease

permeability coefficients through the skin [1]: reduced | release via the HII mesophase [1]: sustained release | steady-state flux [1]: reduced
Molecule: NC(=O)CC[C@@H]1NC(=O)[C@H](Cc2ccccc2)NC(=O)[C@H](Cc2ccc(O)cc2)NC(=O)CCSSC[C@@H](C(=O)N2CCC[C@H]2C(=O)N[C@H](CCCN=C(N)N)C(=O)NCC(N)=O)NC(=O)[C@H](CC(N)=O)NC1=O [desmopressin]

random coil structure content ([2]; in HII mesophase, pH 3 and 5, 27th day): ~100% | content of α helix and β-sheet forms as a function of time ([2]; in HII mesophase, pH 3 to 9): drastically decreased | time after which the peptide stability decreased ([2]; in reverse hexagonal phase): 27 days | time for which sCT conformational stability is maintained ([2]; solubilized within hexagonal mesophases): more than 20 days
Molecule: calcitonin
plasma levels of calcium [3]: significantly reduced

Molecule: LSZ: hydrophilic protein (14.4 KDa) used as model protein solubilized in the HII mesophase
secondary structure on incorporation into hexagonal phase ([4]; HII mesophase, pH 1.5 to 6): no modifications | random coil structure content ([4]; LSZ solution in D2O, pH 1.5): 0.22 | α-helix content ([4]; LSZ solution in D2O, pH 1.5): 0.78 | random coil structure content ([4]; LSZ solution in D2O, pH 11.14): 0.4 | random coil content within HII mesophases compared to D2O ([4]; pH from 6 to 11): lower | α-helix content within HII mesophases compared to D2O ([4]; pH from 6 to 11): considerably higher | β-sheet content within HII mesophase compared to water solution ([5]; urea): significantly lower | random coil content [5, 8]: 0.03 | α-helix content [5, 8]: 0.21 | random coil content [5, 9]: 0.27 | α-helix content [5, 9]: 0.73 | random coil content ([5]; water solution, urea (comparison with HII)): 0.06 | β-sheet content ([5]; water solution, urea denaturation): up to 0.69 | random coil content ([5]; within the HII mesophase, urea): 0.18 | urea concentration up to which α-helical conformation stayed intact ([5]; within the hexagonal mesophase): up to 4 M | temperature from which LSZ denaturation occurs ([6]; D2O): 63 °C | random coil content ([6]; D2O, 60° C.): ~0.3 | α-helix content ([6]; D2O, 60° C.): ~0.7 | random coil content ([6]; D2O, 65° C.): 0.62 | α-helix content ([6]; D2O, 65° C.): 0.34 | α-helix content ([6]; LSZ loaded HII mesophase, 60° C.): ~0.7 | γ-turn content ([6]; LSZ loaded HII mesophase, 63-65° C.): 0.1 | α-helix content ([6]; LSZ loaded HII mesophase, 65° C.): 0.61 | γ-turn content ([6]; LSZ loaded HII mesophase, before 63-65° C.): 0 | random coil content ([6]; LSZ loaded HII mesophase, between 63-65° C.): preserved | time in which the bulk of the release occurred [7]: a week

Molecule: cytochrome C: intermediate sized protein released from cubic phase [reference compound]
time in which the bulk of the release occurred [7]: a week

B1: myoglobin: intermediate sized protein released from cubic phase (protein, UniProt P68082 2-154, looked up)
Myoglobin: GLSDGEWQQVLNVWGKVEADIAGHGQEVLIRLFTGHPETLEKFDKFKHLKTEAEMKASEDLKKHGTVVLTALGGILKKKGHHEAELKPLAQSHATKHKIPIKYLEFISDAIIHVLHSKHPGDFGADAQGAMTKALELFRNDIAAKYKELGFQG
time in which the bulk of the release occurred [7]: a week
